Experimental data from article PMC5506079, “Neodymium-140 DOTA-LM3: Evaluation of an In Vivo Generator for PET with a Non-Internalizing Vector” (Frontiers in Medicine, 2017).

Legend:
[1] = system: NCI-H727 tumor bearing mice; experiment: Small animal PET/CT tissue quantification, pre-mortem (16 h) and post-mortem; format: in vivo, female NMRI nude mice; details: for Tumor post-mortem PET signal: mean ± spread over tumors; for Tumor partial volume corrected PET signal (PVC-PET): post-mortem PET divided by S(V); for Kidney PM PET tissue signal / L. tumor PM PET tissue signal / Liver PM PET tissue signal / Lung PM PET tissue signal / Muscle PM PET tissue signal / Pancreas PM PET tissue signal / R. tumor PM PET tissue signal: post mortem scan after 16 h, 3.3–4.3 MBq i.v.
Description: (§1) NCI-H727 lung carcinoid cancer cells (ATCC CRL-5815, LGC Standards) were cultured in RPMI-1640 media supplemented with 10% fetal bovine serum and 1% penicillin-streptomycin (Invitrogen) at 37° C and 5% CO2. Cells in their exponential growth phase and at 80–90% confluence were harvested by trypsinization and resuspended in 1:1 media and matrigel (BD Biosciences) at 5 × 10^7 cells/mL. Subcutaneous tumors were established in female NMRI nude mice (Taconic, Denmark) by inoculation of 5 × 10^6 cells in 100 µL on each flank above the hind limbs in the subcutaneous space. All animal experiments were performed under a protocol approved by the National Animal Experiments Inspectorate of Denmark.
Longitudinal small animal PET/CT imaging (Inveon Multimodality PET/CT scanner, Siemens) was performed with NCI-H727 tumor bearing mice injected intravenously with 3.3–4.3 MBq ^140Nd-DOTA-LM3 (n = 8) or 2.7–3.1 MBq ^140Nd-chloride (n = 3) in 150 µL. Mice were anesthetized with sevoflurane (Abbott Laboratories) during injection and PET/CT imaging. PET data was acquired for 600 s in list mode at 1, 3, and 16 h after injection. The mice were sacrificed after the 16 h time-point and a PET acquisition was performed 2 h post-mortem. Images were reconstructed using a 3D maximum a posteriori algorithm with CT based attenuation correction. CT images were acquired with the following settings: 300 projections, 65 kV, 500 µA, and 400 ms exposure, and reconstructed with an isotropic voxel size of 105 µm. Image analysis was performed using the Inveon Software (Siemens). Region of interests (ROIs) were drawn manually over the tumor regions and other organs based on the CT images and the uptake of ^140Nd-DOTA-LM3 or ^140Nd-chloride quantified as % injected dose per gram tissue (%ID/g).
Throughout the text we have used a unit, %IS/g, to denote the “percent of injected annihilation signal per gram tissue”. This is in contrast to the common unit, %ID/g (percent of injected dose per gram), which is typically used to report relative radiotracer concentrations. We made the decision to change units for two reasons: first because the EC-delayed positron is not guaranteed to be emitted at the same location as the initial EC decay; and second, because the abnormally high energy of positrons emitted in the decay of ^140Pr leads to large partial volume effects which alter the relationship between the decay distribution and the annihilation distribution.
Using the partial volume correction factor S(V), as a function of ROI volume, the PET quantifications from the manuscript can be rescaled. The results are shown in table S1 compared to the ex vivo biodistribution data. […] A more complete approach to the partial volume correction may lead to better agreement for the PET and well-counter data.

[2] = system: NCI-H727 tumor bearing mice; experiment: Conventional ex vivo biodistribution (gamma counter); format: in vivo, female NMRI nude mice; details: for Tumor ex-vivo well counter: 16 h after injection
Description: as §1
Conventional ex vivo biodistribution was performed after the post-mortem scan. Tumors and organs were resected, weighted and the radioactivity was counted in a gamma counter (Wizard^2, PerkinElmer).

[3] = HPLC verification of de-labeling of ^140Pr from DOTA-LM3; format: physicochemical; details: reverse-phase C-18 radio-HPLC trace vs LSC of fractions
Description: Samples of ^140Nd-DOTA-LM3 were injected onto a reverse-phase C-18 (Luna 3uC18(2)(n) 100 A 100 × 2 mm 3 μm, Phenomenex) column at a flow rate of 0.5 mL/min starting from 0% acetonitrile in water, and reaching 100% over a 15 min gradient. Elution was monitored with a radio detector. The entire effluent was collected in 1 min intervals (500 µL each) and quantified 4 days after collection by liquid scintillation counting on a HIDEX 300 SL spectrometer.

## 1,4,7,10- tetraazacyclododecane, 1,4,7- tri acetic acid, 10- acetamide N - p-Cl-Phecyclo(d-Cys-Tyr-d-4-amino-Phe(carbamoyl)-Lys-Thr-Cys)d-Tyr-NH2 (disulfide) [^140Nd-DOTA-LM3, ^140Nd reacted with the somatostatin analogue DOTA-LM3, a non-internalizing vector; the printed name is that of unlabeled DOTA-LM3]
[1]; 2.5MBq/nmol
  Tumor post-mortem PET signal: 0.19 ±0.07 %IS/g
  Tumor partial volume corrected PET signal (PVC-PET): 1.5 ±0.4 %ID/g
[1]; 5MBq/nmol
  Tumor post-mortem PET signal: 0.40 ±0.15 %IS/g
  Tumor partial volume corrected PET signal (PVC-PET): 3.0 ±1.0 %ID/g
[1]; higher specific activity (5 MBq/nmol), pre- vs post-mortem PET at 16 h, n = 4, mean ± SD
  Fraction of in situ produced ^140Pr washed out of the pancreas before decay: 56 ± 7%
[1]; subject 1, 5 MBq/nmol
  Kidney PM PET tissue signal: 1.41 %IS/g
  L. tumor PM PET tissue signal: 0.38 %IS/g
  Liver PM PET tissue signal: 0.21 %IS/g
  Lung PM PET tissue signal: 0.06 %IS/g
  Muscle PM PET tissue signal: 0.08 %IS/g
  Pancreas PM PET tissue signal: 1.79 %IS/g
  R. tumor PM PET tissue signal: 0.29 %IS/g
[1]; subject 2, 5 MBq/nmol
  Kidney PM PET tissue signal: 1.26 %IS/g
  L. tumor PM PET tissue signal: 0.35 %IS/g
  Liver PM PET tissue signal: 0.17 %IS/g
  Lung PM PET tissue signal: 0.08 %IS/g
  Muscle PM PET tissue signal: 0.07 %IS/g
  Pancreas PM PET tissue signal: 2.12 %IS/g
  R. tumor PM PET tissue signal: 0.41 %IS/g
[1]; subject 3, 5 MBq/nmol
  Kidney PM PET tissue signal: 1.76 %IS/g
  L. tumor PM PET tissue signal: 0.68 %IS/g
  Liver PM PET tissue signal: 0.25 %IS/g
  Lung PM PET tissue signal: 0.08 %IS/g
  Muscle PM PET tissue signal: 0.06 %IS/g
  Pancreas PM PET tissue signal: 2.56 %IS/g
  R. tumor PM PET tissue signal: 0.44 %IS/g
[1]; subject 4, 5 MBq/nmol
  Kidney PM PET tissue signal: 1.15 %IS/g
  L. tumor PM PET tissue signal: 0.24 %IS/g
  Liver PM PET tissue signal: 0.12 %IS/g
  Lung PM PET tissue signal: 0.04 %IS/g
  Muscle PM PET tissue signal: 0.06 %IS/g
  Pancreas PM PET tissue signal: 2.26 %IS/g
  R. tumor PM PET tissue signal: 0.18 %IS/g
[1]; subject 5, 2.5 MBq/nmol
  Kidney PM PET tissue signal: 1.12 %IS/g
  L. tumor PM PET tissue signal: 0.29 %IS/g
  Liver PM PET tissue signal: 0.20 %IS/g
  Muscle PM PET tissue signal: 0.04 %IS/g
  Pancreas PM PET tissue signal: 0.76 %IS/g
  R. tumor PM PET tissue signal: 0.28 %IS/g
[1]; subject 6, 2.5 MBq/nmol
  Kidney PM PET tissue signal: 1.35 %IS/g
  L. tumor PM PET tissue signal: 0.17 %IS/g
  Liver PM PET tissue signal: 0.23 %IS/g
  Lung PM PET tissue signal: 0.08 %IS/g
  Muscle PM PET tissue signal: 0.03 %IS/g
  Pancreas PM PET tissue signal: 1.71 %IS/g
  R. tumor PM PET tissue signal: 0.07 %IS/g
[1]; subject 7, 2.5 MBq/nmol
  Kidney PM PET tissue signal: 0.97 %IS/g
  L. tumor PM PET tissue signal: 0.18 %IS/g
  Liver PM PET tissue signal: 0.17 %IS/g
  Lung PM PET tissue signal: 0.08 %IS/g
  Muscle PM PET tissue signal: 0.03 %IS/g
  Pancreas PM PET tissue signal: 0.88 %IS/g
  R. tumor PM PET tissue signal: 0.19 %IS/g
[1]; subject 8, 2.5 MBq/nmol
  Kidney PM PET tissue signal: 1.18 %IS/g
  L. tumor PM PET tissue signal: 0.18 %IS/g
  Liver PM PET tissue signal: 0.15 %IS/g
  Lung PM PET tissue signal: 0.04 %IS/g
  Muscle PM PET tissue signal: 0.03 %IS/g
  Pancreas PM PET tissue signal: 0.82 %IS/g
  R. tumor PM PET tissue signal: 0.18 %IS/g
[2]; 2.5MBq/nmol
  Tumor ex-vivo well counter: 3.7 ±1.3 %ID/g
[2]; 5MBq/nmol
  Tumor ex-vivo well counter: 6.3 ±2.3 %ID/g
[2]; 16 h after i.v. injection, gamma counter
  Liver tissue accumulation, ex vivo biodistribution: 3 %ID/g
[2]; 16 h after i.v. injection, high specific activity (5.0 MBq/nmol, 0.5 nmol injected), n = 4, gamma counter
  Pancreas tissue accumulation, ex vivo biodistribution: 13 % ID/g
[3]
  Efficiency of release of ^140Pr from DOTA-LM3 after ^140Nd decay: > 95%
